According to patent publication US20110239311:

What was measured:
[1] = tested on: GST-NR2F6 fusion protein, S83A mutant, full-length
[2] = tested on: GST-NR2F6 fusion protein, S89A mutant, full-length
[3] = tested on: GST-NR2F6 fusion protein, wild-type, full-length (purified recombinant)
Chain of GST-NR2F6 fusion protein, wild-type, full-length (purified recombinant) (chain, as listed by the source): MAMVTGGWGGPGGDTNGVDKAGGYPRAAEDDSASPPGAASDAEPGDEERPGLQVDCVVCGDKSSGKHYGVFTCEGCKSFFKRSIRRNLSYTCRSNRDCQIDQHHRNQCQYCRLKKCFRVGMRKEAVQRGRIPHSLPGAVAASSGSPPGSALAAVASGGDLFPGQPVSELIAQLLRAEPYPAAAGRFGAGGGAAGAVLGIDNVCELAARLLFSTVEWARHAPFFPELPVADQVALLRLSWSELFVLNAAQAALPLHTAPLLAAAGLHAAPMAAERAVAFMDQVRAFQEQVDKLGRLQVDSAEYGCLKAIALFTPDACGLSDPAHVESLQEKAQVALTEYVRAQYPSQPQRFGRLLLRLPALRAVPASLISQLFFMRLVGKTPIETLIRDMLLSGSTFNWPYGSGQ

Chain of GST-NR2F6 fusion protein, S89A mutant, full-length (chain, as listed by the source S89A): as the sequence (chain, as listed by the source) above, with S89A counted along it
Chain of recombinant PKCtheta (Q04759 whole entry): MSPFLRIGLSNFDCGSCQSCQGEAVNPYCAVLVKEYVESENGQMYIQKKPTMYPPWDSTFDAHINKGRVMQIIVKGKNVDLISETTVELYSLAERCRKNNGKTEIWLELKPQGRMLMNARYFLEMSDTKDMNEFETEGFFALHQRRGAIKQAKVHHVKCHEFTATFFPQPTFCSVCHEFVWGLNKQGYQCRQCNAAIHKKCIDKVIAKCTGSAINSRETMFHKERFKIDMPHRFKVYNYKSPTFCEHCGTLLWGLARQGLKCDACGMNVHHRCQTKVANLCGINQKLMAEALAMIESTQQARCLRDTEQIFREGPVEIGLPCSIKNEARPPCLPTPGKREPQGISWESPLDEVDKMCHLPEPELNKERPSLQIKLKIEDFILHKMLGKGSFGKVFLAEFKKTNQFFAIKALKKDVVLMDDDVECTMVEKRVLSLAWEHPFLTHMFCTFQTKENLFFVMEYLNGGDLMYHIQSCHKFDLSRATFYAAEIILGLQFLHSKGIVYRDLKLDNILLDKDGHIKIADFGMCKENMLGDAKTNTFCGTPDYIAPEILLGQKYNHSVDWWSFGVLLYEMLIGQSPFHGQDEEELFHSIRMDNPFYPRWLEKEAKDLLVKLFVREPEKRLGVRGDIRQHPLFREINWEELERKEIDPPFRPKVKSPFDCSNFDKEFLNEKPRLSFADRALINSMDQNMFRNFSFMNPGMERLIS
Chain of GST-NR2F6 fusion protein, S83A mutant, full-length (chain, as listed by the source S83A): as the sequence (chain, as listed by the source) above, with S83A counted along it

Row | Substance | in vitro protein kinase assay (32P incorporation into GST-NR2F6) [1] | in vitro protein kinase assay (32P incorporation into GST-NR2F6) [2] | in vitro protein kinase assay (32P incorporation into GST-NR2F6) [3]
1 | recombinant PKCdelta | This phosphorylation was lost after the predicted phosphorylation site at Ser-83 (but not at Ser-89) was mutated in the full-length NR2F6 protein | This phosphorylation was lost after the predicted phosphorylation site at Ser-83 (but not at Ser-89) was mutated in the full-length NR2F6 protein | PKCalpha, delta and theta (but not PKCzeta or PKA) were able to phosphorylate recombinant NR2F6 in vitro
2 | recombinant PKCtheta | This phosphorylation was lost after the predicted phosphorylation site at Ser-83 (but not at Ser-89) was mutated in the full-length NR2F6 protein | This phosphorylation was lost after the predicted phosphorylation site at Ser-83 (but not at Ser-89) was mutated in the full-length NR2F6 protein | PKCalpha, delta and theta (but not PKCzeta or PKA) were able to phosphorylate recombinant NR2F6 in vitro
3 | Protein kinase A (PKA) | – | – | (but not PKCzeta or PKA) were able to phosphorylate recombinant NR2F6 in vitro
4 | recombinant PKCalpha | This phosphorylation was lost after the predicted phosphorylation site at Ser-83 (but not at Ser-89) was mutated in the full-length NR2F6 protein | This phosphorylation was lost after the predicted phosphorylation site at Ser-83 (but not at Ser-89) was mutated in the full-length NR2F6 protein | PKCalpha, delta and theta (but not PKCzeta or PKA) were able to phosphorylate recombinant NR2F6 in vitro
